Data taken from EP4695300A2 (dated 2026).

Assays:
[1] = molecular target: T1, Prostaglandin F2 Receptor Inhibitor (PTGFRN), expressed by cells (human, UniProt Q9P2B2 26-879); experiment: flow binding on cells
T1 construct: whole, on cells; Also used for the endogenous protein in Brij-O10 cell lysates in the co-immunoprecipitation experiments; also called cell surface PTGFRN; prostaglandin F2 receptor negative regulator
T1 sequence (looked up): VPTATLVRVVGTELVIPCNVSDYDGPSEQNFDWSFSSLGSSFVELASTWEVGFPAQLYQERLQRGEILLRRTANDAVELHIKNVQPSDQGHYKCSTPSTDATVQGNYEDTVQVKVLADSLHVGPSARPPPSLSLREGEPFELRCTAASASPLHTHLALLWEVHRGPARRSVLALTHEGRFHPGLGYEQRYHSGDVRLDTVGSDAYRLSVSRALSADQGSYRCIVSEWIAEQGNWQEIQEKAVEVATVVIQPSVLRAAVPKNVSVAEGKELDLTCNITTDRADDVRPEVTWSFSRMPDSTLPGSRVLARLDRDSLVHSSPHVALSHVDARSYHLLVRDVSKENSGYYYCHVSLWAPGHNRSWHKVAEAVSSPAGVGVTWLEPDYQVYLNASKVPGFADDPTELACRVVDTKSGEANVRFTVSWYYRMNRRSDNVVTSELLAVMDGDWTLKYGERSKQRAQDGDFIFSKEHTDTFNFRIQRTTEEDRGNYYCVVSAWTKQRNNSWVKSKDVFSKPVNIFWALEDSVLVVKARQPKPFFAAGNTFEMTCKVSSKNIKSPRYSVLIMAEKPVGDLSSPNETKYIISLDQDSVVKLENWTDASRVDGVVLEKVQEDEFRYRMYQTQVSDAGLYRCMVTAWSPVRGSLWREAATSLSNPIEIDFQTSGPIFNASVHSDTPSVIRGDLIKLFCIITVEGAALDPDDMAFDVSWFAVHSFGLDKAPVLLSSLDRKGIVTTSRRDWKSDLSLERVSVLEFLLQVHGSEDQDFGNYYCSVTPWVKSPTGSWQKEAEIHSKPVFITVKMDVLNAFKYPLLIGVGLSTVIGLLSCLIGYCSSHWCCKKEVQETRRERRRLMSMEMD

[2] = molecular target: T2, PTGFRN as used in the Octet / BLI affinity measurement (UniProt Q9P2B2 26-832, limits assumed); experiment: Octet method
T2 sequence (looked up): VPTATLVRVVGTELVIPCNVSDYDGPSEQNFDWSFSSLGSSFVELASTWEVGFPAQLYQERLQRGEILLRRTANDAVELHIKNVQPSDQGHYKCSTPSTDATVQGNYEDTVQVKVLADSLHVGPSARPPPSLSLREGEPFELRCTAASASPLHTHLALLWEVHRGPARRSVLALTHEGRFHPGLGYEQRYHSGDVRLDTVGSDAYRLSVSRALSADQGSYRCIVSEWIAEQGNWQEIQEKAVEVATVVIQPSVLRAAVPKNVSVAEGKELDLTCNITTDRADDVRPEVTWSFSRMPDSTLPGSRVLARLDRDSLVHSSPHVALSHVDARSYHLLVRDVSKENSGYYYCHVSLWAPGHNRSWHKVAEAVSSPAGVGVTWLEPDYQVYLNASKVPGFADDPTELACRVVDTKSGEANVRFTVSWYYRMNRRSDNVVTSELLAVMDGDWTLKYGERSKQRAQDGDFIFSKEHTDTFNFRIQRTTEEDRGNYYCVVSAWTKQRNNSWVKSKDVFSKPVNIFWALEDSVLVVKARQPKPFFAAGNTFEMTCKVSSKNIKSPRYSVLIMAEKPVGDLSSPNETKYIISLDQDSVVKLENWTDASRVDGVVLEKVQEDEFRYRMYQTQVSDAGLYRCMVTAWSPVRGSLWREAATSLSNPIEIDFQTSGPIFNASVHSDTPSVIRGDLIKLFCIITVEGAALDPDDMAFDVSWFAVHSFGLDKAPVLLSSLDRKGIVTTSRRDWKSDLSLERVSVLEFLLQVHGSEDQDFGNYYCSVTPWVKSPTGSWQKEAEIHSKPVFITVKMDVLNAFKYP

[3] = molecular target: T2, PTGFRN as used in the Octet / BLI …; experiment: Bi-Layer Interferometry (BLI), Octet Red96

B1: fully human anti-PTGFRN monoclonal antibody 12D8 (antibody, IgG1, V domains shown)
VH: EVQLVESGGGLVQPGRSLRLSCAASGFTFDDYAMHWVRQAPGKGLEWVSGISWSSGSLGYEDSVKGRFTISRDNAKKTLYLQMNSLRAEDTALYYCAKDMGFGDFLYYYGMDVWGQGTTVTVSS
VL: EIVLTQSPGTLSLSPGERATLSCRASQSVSSSYLTWYQQKPGQAPRLLIYGASSRATGIPDRFSGSGSGTDFTLTIRRLEPEDFAVYYCQQYGDSPPWTFGQGTKVEIK
B1: binds [1].

B2: fully human anti-PTGFRN monoclonal antibody 4F8 (antibody, IgG4, V domains shown)
VH: EVQLVESGEGLVQPGRSLRLSCAASGFTFDDYAMHWVRQAPGKGLEWVSGISWDSGRIGYADSVKGRFTISRDNAKNSLYLQMNSLRAEDTALYYCAKDRGGGNWNYYYYGMDVWGQGTTVTVSS
VL: DIQMTQSPSSLSASVGDRVTITCRASQGISNYLAWFQQKPGKAPKSLIYAASSLQSGVPSKFSGSGSGTDFTLTISSLQPEDFATYYCQQYNSFPFTFGPGTKVDIK
Work on B2 yielded a Kd [2] of 5.2 nM.

B3: fully human anti-PTGFRN monoclonal antibody 8C7 (antibody, V domains shown)
VH: QLQLQESGPGLVKPSETLSLTCTVSGGSISSSSYYWGWIRQPPGKGLEWIGSIYYGGSTYYNPSLKSRVTISVDTSTNQFSLKLNSVTAADTAVYYCARQGLGSFDCWGQGTLVTVSS
VL: DVVMTQSPLSLPVTLGQPASISCRSSQSLVHSDGNTYLNWFQQRPGQSPRRLIYKVSNRDSGVPDRFSGSGSGTDFTLKISGVEAEDVGIYYCMQGTHWPPLTFGGGTKVEIK
notes: also called anti-PTGFRN antibody 8C7; internalizing anti-PTGFRN 8C7
B3 was tested, and the Kd [3] was 0.001 nM.

B4: fully human anti-PTGFRN monoclonal antibody 6B2 (antibody, IgG1, V domains shown)
VH: QLQLQESGPGLVKPSETLSLTCTVSGGSISSSSYYWDWIRQPPGKGLEWIGTIYYGGSTYYNPSLKSRVTISVDTSKNQFSLKLNSVTAADTAVYYCARGNSYGLDYWGQGTLVTVSS
VL: DVVMTQSPLSLPVTLGQPASISCRSSQSLVHSDGNMYLNWFQQRPGQSPRRLIYKVSNRDSGVPDRFSGSGSGTDFTLKISRVEAEDVGIYYCMQSTHWPPVTFGQGTKLEIK
B4: binds [1].
